# Where a chain is given by its changes, count along the chain named.
# T1: Venezuela/2007 (serotype II EDIII)
# T1 construct: also called ED3-DV2/Venezuela07
# T1 E protein domain III (EDIII): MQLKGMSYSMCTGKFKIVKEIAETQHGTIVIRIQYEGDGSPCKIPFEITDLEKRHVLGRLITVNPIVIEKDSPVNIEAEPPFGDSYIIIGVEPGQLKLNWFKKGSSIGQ
# T2: Mexico/2007 (serotype I EDIII)
# T2 construct: also called ED3-DV1/Mexico07
# T2 E protein domain III (EDIII): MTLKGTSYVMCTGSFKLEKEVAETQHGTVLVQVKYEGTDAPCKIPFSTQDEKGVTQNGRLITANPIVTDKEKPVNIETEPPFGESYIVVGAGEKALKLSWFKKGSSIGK
# T3: Puerto Rico/1977 (serotype III EDIII)
# T3 construct: Genotype IV; also called ED3-DV3/PuertoRico77
# T3 E protein domain III (EDIII): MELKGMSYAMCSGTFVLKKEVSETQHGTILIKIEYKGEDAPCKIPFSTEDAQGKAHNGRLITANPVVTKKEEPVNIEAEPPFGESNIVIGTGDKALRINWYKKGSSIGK
# T4: Vietnam/2007 (serotype II EDIII)
# T4 construct: Genotype Asian II; also called ED3-DV2/Viet07
# T4 E protein domain III (EDIII): T1 E protein domain III (EDIII) with I17V, I33V, T49M, H55Y, I68T, V74I
# T5: Brazil/2011 (serotype IV EDIII)
# T5 E protein domain III (EDIII): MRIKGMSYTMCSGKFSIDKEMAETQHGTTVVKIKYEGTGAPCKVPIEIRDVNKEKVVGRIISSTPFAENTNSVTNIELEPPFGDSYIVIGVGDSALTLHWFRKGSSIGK
# T6: Malaysia/2005 (serotype I EDIII)
# T6 construct: also called ED3-DV1/Malaysia05
# T6 E protein domain III (EDIII): T2 E protein domain III (EDIII) with T6I, S14P, T48S, I61V, T78A
# T7: New Caledonia/2009 (serotype IV EDIII)
# T7 construct: also called ED3-DV4/NewCal09; DENV-4 NC
# T7 E protein domain III (EDIII): T5 E protein domain III (EDIII) with I33V, T38A, V44I, T74I
# T8: Venezuela/2008 (serotype IV EDIII)
# T8 E protein domain III (EDIII): T5 E protein domain III (EDIII) with I33V, T38A, I60V, S63A, F66L, D93N
# B1: antibody D88 (antibody, V domains shown)
# VH: QVQLVQSGAEVKKPGASVKVSCKAGFNIKDVYMSWVRQAPEQGLEWMGRIDPENGDTKYDPKLQGRVTMTADTSTNTAYMELRSLRSDDTAVYYCARGWEGFAYWGQGTLVTVSS
# VL: DIVMTQSPASLAVSLGERATISCRASENVDKYGNSFMHWYQQKPGQPPKLLIYRASELQWGVPDRFSGSGSGTDFTLTISSLQAEDVAVYYCQRSNEVPWTFGQGTKLEIK
# notes: also called mAb D88
# How the values were obtained:
# [1] = molecular target: T1, Venezuela/2007 (serotype II EDIII); assay: SPR; row Venezuela/2007, serotype II, genotype SE-Asian/American
# [2] = molecular target: T2, Mexico/2007 (serotype I EDIII)
# [3] = molecular target: T9, EDIII-DV2 (E protein domain III of dengue virus serotype DV-2) (dengue virus serotype DV-2, UniProt P14337 573-677)
# T9 construct: also called DENV-2; EDIII of DV-2
# T9 sequence (P14337 573-677, tags left off): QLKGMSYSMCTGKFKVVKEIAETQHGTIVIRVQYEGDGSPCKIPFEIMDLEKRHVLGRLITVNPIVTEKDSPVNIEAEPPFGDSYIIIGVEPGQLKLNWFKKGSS
# [4] = molecular target: T10, Singapore/2008 (serotype II EDIII); assay: Kd table, method not stated; Ag DENV-2 Sing
# T10 construct: also called ED3-DV2/Sing08; DENV-2 Sing
# [5] = molecular target: T11, Mexico/1977 (BC287/97)* (serotype IV EDIII) (Dengue virus 4); assay: SPR; row Mexico/1977 (BC287/97)*, serotype IV, genotype IIa
# T11 construct: isolated EDIII protein; also called EDIII of DENV-4 Mexico/1997 (BC287/97); DENV-4 BC2
# [6] = molecular target: T3, Puerto Rico/1977 (serotype III EDIII); assay: ELISA; row Puerto Rico/1977, serotype III, genotype IV
# [7] = molecular target: T4, Vietnam/2007 (serotype II EDIII); assay: SPR; row Vietnam/2007, serotype II, genotype Asian II
# [8] = molecular target: T12, New Guinea/1944 (NGC)* (serotype II EDIII) (Dengue virus 2); assay: ELISA; row New Guinea/1944 (NGC)*, serotype II, genotype Asian I
# T12 construct: isolated EDIII protein; also called EDIII of DENV-2 NGC
# T12 sequence (P14340 578-673): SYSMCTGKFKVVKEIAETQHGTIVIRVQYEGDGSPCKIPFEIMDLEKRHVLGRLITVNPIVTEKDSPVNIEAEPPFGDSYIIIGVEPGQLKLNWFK
# [9] = molecular target: T13, ED3-DV4/H241/Phil56 (EDIII of DENV-4 strain H241) (dengue virus serotype DENV-4, strain …, UniProt Q58HT7 572-679); assay: SPR; row Philippines/1956 (H241)*, serotype IV, genotype I
# [10] = molecular target: T5, Brazil/2011 (serotype IV EDIII); assay: SPR; row Brazil/2011, serotype IV, genotype I
# [11] = molecular target: T12, New Guinea/1944 (NGC)* (serotype II …); assay: Kd table, method not stated; Ag DENV-2 NGC
# [12] = molecular target: T5, Brazil/2011 (serotype IV EDIII); assay: ELISA; row Brazil/2011, serotype IV, genotype I
# [13] = molecular target: T4, Vietnam/2007 (serotype II EDIII); assay: ELISA; row Vietnam/2007, serotype II, genotype Asian II
# [14] = molecular target: T6, Malaysia/2005 (serotype I EDIII)
# [15] = molecular target: T7, New Caledonia/2009 (serotype IV EDIII); assay: SPR; row New Caledonia/2009, serotype IV, genotype IIb
# [16] = molecular target: T14, Philippines/1956 (H87)* (serotype III EDIII) (Dengue virus 3); assay: ELISA; row Philippines/1956 (H87)*, serotype III, genotype I
# T14 construct: isolated EDIII protein
# T14 sequence (P27915 576-671): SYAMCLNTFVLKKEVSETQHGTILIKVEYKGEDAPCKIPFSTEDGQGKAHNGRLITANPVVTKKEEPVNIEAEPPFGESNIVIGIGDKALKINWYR
# [17] = molecular target: T8, Venezuela/2008 (serotype IV EDIII); assay: SPR; row Venezuela/2008, serotype IV, genotype IIa
# [18] = molecular target: T13, ED3-DV4/H241/Phil56 (EDIII of DENV-4 …); assay: ELISA; row Philippines/1956 (H241)*, serotype IV, genotype I
# [19] = molecular target: T13, ED3-DV4/H241/Phil56 (EDIII of DENV-4 …); assay: Kd table, method not stated; Ag DENV-4 Phil
binder,measurement,setting,value
B1,Kd,[1],0.029 nM
same,Kd,[2],< 0.1 nM
same,Kd,[3],0.016 nM
same,Kd,[4],< 0.1 nM
same,Kd,[5],3.8 nM
same,Kd,[6],1.36 nM
same,Kd,[7],0.014 nM
same,Kd,[8],< 0.1 nM
same,Kd,[9],118 nM
same,Kd,[10],7.9 nM
same,Kd,[11],< 0.1 nM
same,Kd,[12],14.7 nM
same,Kd,[13],< 0.1 nM
same,Kd,[14],< 0.1 nM
same,Kd,[15],8.9 nM
same,Kd,[16],1.24 nM
same,Kd,[17],3.03 nM
same,Kd,[18],113 nM
same,Kd,[19],148 nM
